Assay results taken from PMC10190533, “Engineering Escherichia coli to Utilize Erythritol as Sole Carbon Source” (Advanced Science, 2022).

Molecular target: the molecule itself
Assay: SEC + native gel or EMSA

B1: eryD, erythritol-binding transcriptional repressor from Ochrobactrum spp. (natural protein)
chain: MADADDSLALRAAWLHFVAGMTQSAVAKRLGLPSVKAHRLIAKAVADGAVKVTIDGDITECIDLENRLADLYGLDYCEVAPDIGEEGLPLMALGHAGANFMRREIEHGDHEVIGIGHGRTLSAAVGYMPRVMANDLRFVSLLGGLTRNFAANPHDVMHRIAEKTGMPAYVMPVPFFANTAEDREVLLAQRGVTTVFDMGCRAELKIVGIGTVDAQAQLVTSGMIELGEVEEIANLGGVGEMLGHFFNANGQWLETALTGRTIAASVENADMSRIVALAGGLSKVDAIRAVLKSGRLYGLITDERTAKALIGQPNGK
notes: also called erythritol-responding genetic repressor eryD
stoichiometry N: 4
